Binding result and Kd data for 15 molecules are collected here from patent publication US20090269356, “Complement Binding Aptamers and Anti-C5 Agents Useful in the Treatment of Ocular Disorders” (published 2009).

For orientation: Kd means the concentration at which binding is half-saturated.

Holding throughout (conditions): tags: Quidel / Complement Technologies A120.14 / Advanced Research Technologies
For series [1], the target named is T1, complement C5 (full length) (Homo sapiens, UniProt P01031). Kind of series: filter; dot blot, no binding.
T1 sequence (P01031 whole entry): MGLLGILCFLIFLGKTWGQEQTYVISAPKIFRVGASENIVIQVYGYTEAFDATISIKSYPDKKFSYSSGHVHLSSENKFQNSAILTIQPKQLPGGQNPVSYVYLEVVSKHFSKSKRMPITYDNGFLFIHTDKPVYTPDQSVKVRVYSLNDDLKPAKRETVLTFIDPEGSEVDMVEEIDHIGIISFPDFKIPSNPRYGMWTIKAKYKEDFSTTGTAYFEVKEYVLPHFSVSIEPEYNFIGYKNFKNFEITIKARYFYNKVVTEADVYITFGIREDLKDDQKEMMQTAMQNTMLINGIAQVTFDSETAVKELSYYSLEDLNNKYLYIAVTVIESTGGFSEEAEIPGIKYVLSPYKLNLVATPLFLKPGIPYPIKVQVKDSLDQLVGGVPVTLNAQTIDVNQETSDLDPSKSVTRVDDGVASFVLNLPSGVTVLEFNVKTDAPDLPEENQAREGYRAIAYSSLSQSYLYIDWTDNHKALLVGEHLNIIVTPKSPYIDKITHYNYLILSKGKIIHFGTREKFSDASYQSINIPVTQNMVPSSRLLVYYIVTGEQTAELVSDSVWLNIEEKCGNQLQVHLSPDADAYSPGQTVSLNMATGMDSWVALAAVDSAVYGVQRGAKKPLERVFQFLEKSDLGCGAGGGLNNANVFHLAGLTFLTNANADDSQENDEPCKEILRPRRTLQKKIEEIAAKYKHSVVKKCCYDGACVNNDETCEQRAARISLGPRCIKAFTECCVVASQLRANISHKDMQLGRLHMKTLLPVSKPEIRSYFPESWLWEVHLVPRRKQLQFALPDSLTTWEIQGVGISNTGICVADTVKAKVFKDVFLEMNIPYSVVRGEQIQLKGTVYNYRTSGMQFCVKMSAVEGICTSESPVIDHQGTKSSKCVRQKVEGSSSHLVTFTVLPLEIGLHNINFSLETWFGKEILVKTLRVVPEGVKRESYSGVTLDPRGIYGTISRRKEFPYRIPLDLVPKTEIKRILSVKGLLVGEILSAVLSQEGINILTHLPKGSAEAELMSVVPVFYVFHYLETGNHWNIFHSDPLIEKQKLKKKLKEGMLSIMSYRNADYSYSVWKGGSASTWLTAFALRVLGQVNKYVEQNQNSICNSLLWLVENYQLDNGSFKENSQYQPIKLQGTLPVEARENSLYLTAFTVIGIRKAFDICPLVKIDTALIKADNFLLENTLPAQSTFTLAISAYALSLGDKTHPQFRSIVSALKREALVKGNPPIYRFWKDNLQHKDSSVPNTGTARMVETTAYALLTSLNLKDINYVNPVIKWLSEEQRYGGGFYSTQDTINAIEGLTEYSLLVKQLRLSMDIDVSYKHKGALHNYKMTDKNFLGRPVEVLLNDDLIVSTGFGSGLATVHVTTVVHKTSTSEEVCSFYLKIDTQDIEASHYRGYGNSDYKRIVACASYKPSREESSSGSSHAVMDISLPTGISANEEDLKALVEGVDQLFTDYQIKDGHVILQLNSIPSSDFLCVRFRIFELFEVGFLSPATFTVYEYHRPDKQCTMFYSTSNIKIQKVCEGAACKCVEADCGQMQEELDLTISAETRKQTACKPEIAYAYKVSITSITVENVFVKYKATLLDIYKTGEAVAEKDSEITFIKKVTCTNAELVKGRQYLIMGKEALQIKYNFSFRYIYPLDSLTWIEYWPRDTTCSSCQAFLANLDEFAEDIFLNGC
In series [2] the target is T1, complement C5 (full length). Kind of series: filter; among 11 best clones in 500 nM screen; Kd not given. How it is done:
(§1) Doped reselection data. Both the normal and high salt selections were enriched after 5 rounds over the naïve pool. At round 5 the pool Kd was approximately 165 nM for the high salt selection and 175 nM for the normal salt selection. The extent of binding was about 20% at the plateau in both. The R4 pools were cloned using TOPO TA cloning kit (Invitrogen, Carlsbad, Calif.), and 48 clones from each pool were sequenced. 12 clones from each pool were transcribed and assayed in a single point dot blot assay at 500 nM C5. Dissociation constants (Kds) were again measured using the dot blot assay previously described. Kds were estimated for the 11 best clones identified in the single point screen, by fitting the data to the equation: fraction RNA bound=amplitude*Kd/(Kd+[C5]). The clones with the three best Kds were SEQ ID NO: 91 (73 nM), SEQ ID NO: 96 (84 nM) and SEQ ID NO: 95 (92 nM). The sequences for these 11 clones are listed below in Table 5.

Series [3] shares this target. Kind of series: filter; dot blot. On the procedure:
(§2) The selection progress was monitored using a sandwich filter binding (dot blot) assay. The 5′-³²P-labeled pool RNA (trace concentration) was incubated with C5, 1×DPBS plus 0.1 mg/mL tRNA and 0.1 mg/mL salmon sperm DNA, for 30 minutes at room temperature, and then applied to a nitrocellulose and nylon filter sandwich in a dot blot apparatus (Schleicher and Schuell). The percentage of pool RNA bound to the nitrocellulose was calculated and monitored approximately every 3 rounds with a single point screen (+/−300 nM C5). Pool Kd measurements were measured using a titration of protein and the dot blot apparatus as described above.
Six constructs based on ARC913 (SEQ ID NO: 75) were transcribed, gel purified, and tested in dot blots for binding to C5.

The target is the same in series [4]. Kind of series: filter; dot blot, DPBS. On the procedure: as §2
as §1, with “Kds were estimated for the 11 best clones identified in the single point screen, by fitting the data to the equation: fraction RNA bound=amplitude*Kd/(Kd+[C5]). The clones with the three best Kds were SEQ ID NO: 91 (73 nM), SEQ ID NO: 96 (84 nM) and SEQ ID NO: 95 (92 nM). The sequences for these 11 clones are listed below in Table 5.” left out

Regarding GGCGGCACAGGCAUACAUACGCAGGGGUCGCC (mixed, dRmY: A,G deoxy; C,U 2'-OMe) [ARC878], the binding result in series [1] was “no binding”.

B1: doped clone SEQ 94 (mixed)
RNA: GGGAGAGGAGAGAACGUUCUACCUUGGUUUGGCACAGGCAUACAUACGCAGGUCGAUCGGUUACGACUA
modifications: dRmY: A,G deoxy; C,U 2'-OMe
B1: the binding result in series [2] was “binds”.

In the case of CCUUGGUUUGGCACAGGCAUACAUACGCAGGG (mixed, dRmY: A,G deoxy; C,U 2'-OMe) [ARC874], binding in series [3] was characterised by a dissociation constant (Kd) of 1000 nM.

Turning to CCUUGGUUUGGCACAGGCAUACAAACGCAGGG (mixed, dRmY: A,G deoxy; C,U 2'-OMe) [ARC875], in series [1], the binding result was “no binding”.

B2: doped clone SEQ 98 (mixed)
RNA: GGGAGAGGAGAGAACGUUCUACCUUGGUUUGGCACAGGCAUAUAUACGCAGGGUCGAUCCGUUACGACUAGCAUCGAUG
modifications: dRmY: A,G deoxy; C,U 2'-OMe
Take B2: the binding result in series [2] is recorded as “binds”.

In the case of GGGUUUGGCACAGGCAUACAUACCC (mixed, dRmY: A,G deoxy; C,U 2'-OMe) [ARC876], the binding result in series [1] is given as “no binding”.

B3: doped clone SEQ 97 (mixed)
RNA: GGGAGAGGAGAGAACGUUCUACCUUUCUCUGCCACAAGCAUACCUUCGCGGGGUUCUAUUGGUUACGACUAGCAUCGAUG
modifications: dRmY: A,G deoxy; C,U 2'-OMe
Consider B3, for which the binding result in series [2] is reported as “binds”.

In the case of GGGUUUGGCACAGGCAUACAAACCC (mixed, dRmY: A,G deoxy; C,U 2'-OMe) [ARC877], the binding result in series [1] is “no binding”.

B4: doped clone SEQ 95 (mixed)
RNA: GGGAGAGGAGAGAACGUUCUACCUUAGGUUCGCACUGUCAUACAUACACACGGGCAAUCGGUUACGACUAGCAUCGAUG
modifications: dRmY: A,G deoxy; C,U 2'-OMe
For B4, in series [4], the affinity, expressed as Kd, was 92 nM.

B5: doped clone SEQ 92 (mixed)
RNA: GGGAGAGGAGAGAACGUUCUACCUUGGUUUGGCGCAGGCAUACAUACGCAGGUCGAUCGGUUACGACUAGCAUCGAUG
modifications: dRmY: A,G deoxy; C,U 2'-OMe
B5: the binding result in series [2] is on record as “binds”.

B6: doped clone SEQ 88 (mixed)
RNA: GGGAGAGGAGAGAACGUUCUACCUUGGUUUGGCACAGGCAUACAUACGCAGGGGUCGAUCGGUUACGACUAGCAUCGAUG
modifications: dRmY: A,G deoxy; C,U 2'-OMe
Take B6: the binding result in series [2] was “binds”.

B7: doped clone SEQ 89 (mixed)
RNA: GGGAGAGGAGAGAACGUUCUACCUUGGUUUGGCACAGGCAUACAUACGCAGGUGUCGAUCUGUUACGACUAGCAUCGAUG
modifications: dRmY: A,G deoxy; C,U 2'-OMe
Turning to B7, the binding result in series [2] is given as “binds”.

B8: doped clone SEQ 90 (mixed)
RNA: GGGAGAGGAGAGAACGUUCUACCUUGGUUUGGCACAGGCAUAAAUACGCAGGGCUCGAUCGGUUACGACUAGCAUCGAUG
modifications: dRmY: A,G deoxy; C,U 2'-OMe
Regarding B8, the binding result in series [2] was “binds”.

B9: doped clone SEQ 91 (mixed)
RNA: GGGAGAGGAGAGAACGUUCUACCUUGGUUUGGCCCAGGCAUAUAUACGCAGGGAUUGAUCCGUUACGACUAGCAUCGAUG
modifications: dRmY: A,G deoxy; C,U 2'-OMe
B9 gave a Kd in series [4] of 73 nM.

B10: doped clone SEQ 93 (mixed)
RNA: GGGAGAGGAGAGAACGUUCUACCUUGUUGUGGCACAGCCAACCCUACGCACGGAUCGCCCGGUUACGACUAGCAUCGAUG
modifications: dRmY: A,G deoxy; C,U 2'-OMe
For B10, in series [2], the binding result is listed as “binds”.
